Experiment [1] concerns the target ROBO1 expressed on ROBO1-expressing HEK293 cells (ROBO1/pcDNA3.1, C-terminal V5 tag) (human) (UniProt Q9Y6N7). Nature of the experiment: cell-based or functional assay.
Experiment [2] has the same target. Nature of the experiment: FACS on ROBO1-expressing HEK293 cells, signal intensity digitized.

As a reminder, the EC50 is the concentration that produces a half-maximal response.

Sequence of UniProt Q9Y6N7 (Q9Y6N7 26-1651): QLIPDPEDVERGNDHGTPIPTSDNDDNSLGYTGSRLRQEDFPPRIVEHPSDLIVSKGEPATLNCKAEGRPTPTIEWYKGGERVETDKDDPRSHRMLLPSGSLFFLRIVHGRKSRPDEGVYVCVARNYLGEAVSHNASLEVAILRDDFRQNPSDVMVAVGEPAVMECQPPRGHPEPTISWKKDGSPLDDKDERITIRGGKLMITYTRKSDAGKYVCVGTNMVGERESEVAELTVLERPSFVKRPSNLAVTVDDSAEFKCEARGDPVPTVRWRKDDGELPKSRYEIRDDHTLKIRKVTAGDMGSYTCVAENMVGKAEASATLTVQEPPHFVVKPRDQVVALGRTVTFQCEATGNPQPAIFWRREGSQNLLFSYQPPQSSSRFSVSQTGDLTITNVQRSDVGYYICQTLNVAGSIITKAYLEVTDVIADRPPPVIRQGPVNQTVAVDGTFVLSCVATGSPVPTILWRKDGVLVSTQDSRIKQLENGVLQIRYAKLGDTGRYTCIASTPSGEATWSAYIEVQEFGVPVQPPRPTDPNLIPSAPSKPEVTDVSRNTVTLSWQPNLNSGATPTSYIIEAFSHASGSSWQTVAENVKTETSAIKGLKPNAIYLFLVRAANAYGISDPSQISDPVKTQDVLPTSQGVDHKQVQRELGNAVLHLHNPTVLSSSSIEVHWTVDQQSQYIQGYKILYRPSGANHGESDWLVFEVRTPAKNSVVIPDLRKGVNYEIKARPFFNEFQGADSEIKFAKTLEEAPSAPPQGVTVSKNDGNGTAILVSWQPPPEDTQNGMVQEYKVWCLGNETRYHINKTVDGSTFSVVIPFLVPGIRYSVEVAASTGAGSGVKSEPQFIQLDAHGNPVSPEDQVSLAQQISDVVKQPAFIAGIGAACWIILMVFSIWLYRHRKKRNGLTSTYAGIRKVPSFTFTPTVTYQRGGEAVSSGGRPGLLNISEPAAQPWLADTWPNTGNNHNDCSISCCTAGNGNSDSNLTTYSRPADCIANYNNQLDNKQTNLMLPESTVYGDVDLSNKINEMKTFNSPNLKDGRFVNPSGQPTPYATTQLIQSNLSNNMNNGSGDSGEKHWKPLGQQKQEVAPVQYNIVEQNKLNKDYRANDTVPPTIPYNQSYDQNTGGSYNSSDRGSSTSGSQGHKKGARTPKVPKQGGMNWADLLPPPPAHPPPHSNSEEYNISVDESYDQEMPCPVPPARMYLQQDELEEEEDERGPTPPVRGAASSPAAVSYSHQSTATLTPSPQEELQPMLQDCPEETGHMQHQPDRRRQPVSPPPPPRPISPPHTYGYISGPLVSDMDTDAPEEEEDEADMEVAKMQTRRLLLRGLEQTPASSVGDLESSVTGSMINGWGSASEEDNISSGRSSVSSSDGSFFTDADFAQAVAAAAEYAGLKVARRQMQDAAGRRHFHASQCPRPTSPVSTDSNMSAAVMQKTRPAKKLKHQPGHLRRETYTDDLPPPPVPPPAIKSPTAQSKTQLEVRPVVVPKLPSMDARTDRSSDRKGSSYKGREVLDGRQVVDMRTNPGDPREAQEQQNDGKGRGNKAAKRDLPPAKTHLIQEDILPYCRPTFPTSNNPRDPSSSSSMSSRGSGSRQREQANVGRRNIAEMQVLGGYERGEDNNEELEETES

B1: B5209B (antibody, from another filing, mouse IgG2b)
scFv: MAEVQLVESGGGVVQPGGSLKLSCAASGFTFSTYDMSWVRQTPDKRLELVATINSNGGSTYYPDSVKGRFTSSRDNAKNILYLQMSSLKSEDTAMYYCAREALLRPPYYALDYWGQGTSVTVSSAGGGGSGGGGSGGGGSGGGGSDILDIQMTQSPASLSASVGETVTITCGASENIYGALTWYQRKQGKSPQLLIYGAINLADDKSSRFSGSGSGRQYSLKISSLHPDDVATYYCQNVLSTPFTFGSGTKLEIKAAGHHHHHH
B1: the CDC (%), measured value at 0.1 ug/mL in experiment [1] was found to be 87.2%. Further, the EC50 in experiment [2] was 3.1 nM.

The record behind these values is US20090092544A1.
